Assay results taken from patent US20070196354A1, “Method of treating diabetes by inhibiting degradation of at least one of crebl1, atf6, and hnf-4 alpha by htra” (priority 2003, published 2007).

Experiments:
[1] = biological target: T1, HNF-4α (SEQ ID NO: 35) with N-terminal tag, as used in Example 6
T1 chain: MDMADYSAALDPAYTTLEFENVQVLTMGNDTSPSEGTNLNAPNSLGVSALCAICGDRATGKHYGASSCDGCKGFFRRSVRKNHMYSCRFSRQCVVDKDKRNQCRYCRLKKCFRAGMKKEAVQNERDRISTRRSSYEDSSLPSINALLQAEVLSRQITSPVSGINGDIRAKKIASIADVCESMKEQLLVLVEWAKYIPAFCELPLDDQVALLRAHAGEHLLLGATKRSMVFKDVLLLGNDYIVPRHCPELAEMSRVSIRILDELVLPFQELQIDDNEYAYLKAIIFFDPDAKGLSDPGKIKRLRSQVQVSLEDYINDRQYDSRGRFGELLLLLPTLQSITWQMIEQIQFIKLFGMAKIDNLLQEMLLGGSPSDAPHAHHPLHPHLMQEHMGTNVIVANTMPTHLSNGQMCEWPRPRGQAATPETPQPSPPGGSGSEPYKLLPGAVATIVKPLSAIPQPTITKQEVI

[2] = biological target: T2, CREBL1 (SEQ ID NO: 16) with c-Myc-tag ligated at the N-terminal
T2 chain: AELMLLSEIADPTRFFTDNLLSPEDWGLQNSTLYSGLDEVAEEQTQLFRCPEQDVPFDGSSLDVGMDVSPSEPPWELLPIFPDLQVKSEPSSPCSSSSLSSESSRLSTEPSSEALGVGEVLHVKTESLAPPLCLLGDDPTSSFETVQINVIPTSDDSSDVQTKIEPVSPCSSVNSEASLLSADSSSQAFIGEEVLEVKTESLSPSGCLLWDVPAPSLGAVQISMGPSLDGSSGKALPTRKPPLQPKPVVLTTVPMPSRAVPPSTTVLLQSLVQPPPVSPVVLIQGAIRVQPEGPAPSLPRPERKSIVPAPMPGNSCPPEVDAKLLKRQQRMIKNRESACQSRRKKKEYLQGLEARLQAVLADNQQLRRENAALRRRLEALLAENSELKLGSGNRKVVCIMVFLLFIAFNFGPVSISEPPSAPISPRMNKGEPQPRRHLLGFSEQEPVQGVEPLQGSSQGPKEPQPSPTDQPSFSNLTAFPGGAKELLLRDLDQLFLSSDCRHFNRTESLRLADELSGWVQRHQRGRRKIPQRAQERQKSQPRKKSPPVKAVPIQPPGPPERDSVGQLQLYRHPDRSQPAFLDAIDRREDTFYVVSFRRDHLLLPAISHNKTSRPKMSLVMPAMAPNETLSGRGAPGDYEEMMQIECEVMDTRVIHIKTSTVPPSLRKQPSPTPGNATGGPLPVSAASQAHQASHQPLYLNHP

[3] = biological target: T3, biotinylated CREBL1 (N-terminal tagged-CREBL1 with biotinylated lysine residue within the protein)
T3 chain: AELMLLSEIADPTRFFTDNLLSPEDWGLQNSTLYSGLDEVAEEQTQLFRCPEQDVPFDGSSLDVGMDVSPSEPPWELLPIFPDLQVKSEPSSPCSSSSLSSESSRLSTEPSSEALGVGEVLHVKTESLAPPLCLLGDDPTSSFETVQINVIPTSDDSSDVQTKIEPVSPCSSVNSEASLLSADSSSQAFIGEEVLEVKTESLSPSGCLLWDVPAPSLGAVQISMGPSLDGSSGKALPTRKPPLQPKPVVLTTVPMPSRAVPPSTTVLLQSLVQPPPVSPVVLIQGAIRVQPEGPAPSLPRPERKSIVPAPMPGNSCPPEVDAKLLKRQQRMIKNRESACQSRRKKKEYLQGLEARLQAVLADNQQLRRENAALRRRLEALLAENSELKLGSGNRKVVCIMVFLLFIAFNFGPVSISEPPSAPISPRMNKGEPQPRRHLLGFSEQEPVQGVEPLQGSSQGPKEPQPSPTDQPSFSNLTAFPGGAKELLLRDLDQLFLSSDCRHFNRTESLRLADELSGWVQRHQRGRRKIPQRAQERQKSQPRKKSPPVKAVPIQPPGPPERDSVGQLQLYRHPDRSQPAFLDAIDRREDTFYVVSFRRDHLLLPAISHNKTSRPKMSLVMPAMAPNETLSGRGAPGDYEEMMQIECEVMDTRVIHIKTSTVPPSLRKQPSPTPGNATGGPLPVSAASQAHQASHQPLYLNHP

[4] = biological target: T4, ATF6 (SEQ ID NO: 18) with c-Myc-tag ligated at the N-terminal
T4 chain: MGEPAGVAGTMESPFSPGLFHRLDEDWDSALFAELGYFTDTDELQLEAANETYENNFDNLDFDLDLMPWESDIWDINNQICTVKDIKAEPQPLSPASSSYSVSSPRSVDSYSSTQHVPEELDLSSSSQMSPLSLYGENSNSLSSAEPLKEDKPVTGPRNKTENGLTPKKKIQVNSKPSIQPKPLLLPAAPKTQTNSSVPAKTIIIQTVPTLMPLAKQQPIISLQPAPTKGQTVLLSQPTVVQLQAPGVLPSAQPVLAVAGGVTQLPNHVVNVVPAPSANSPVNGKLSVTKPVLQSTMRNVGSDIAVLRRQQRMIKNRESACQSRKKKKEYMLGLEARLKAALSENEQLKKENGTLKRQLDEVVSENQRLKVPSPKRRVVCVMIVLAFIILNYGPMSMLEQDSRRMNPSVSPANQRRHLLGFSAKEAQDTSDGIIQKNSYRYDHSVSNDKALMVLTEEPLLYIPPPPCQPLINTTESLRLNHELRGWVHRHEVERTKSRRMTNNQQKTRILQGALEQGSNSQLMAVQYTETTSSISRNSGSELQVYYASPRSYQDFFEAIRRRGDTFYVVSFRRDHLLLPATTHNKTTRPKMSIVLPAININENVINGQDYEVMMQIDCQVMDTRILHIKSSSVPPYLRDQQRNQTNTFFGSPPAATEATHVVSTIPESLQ

B1: mature HtrA2 (SEQ ID NO: 4) with histidine (His)-tag ligated at the C-terminal (protein)
chain: MAVPSPPPASPRSQYNFIADVVEKTAPAVVYIEILDRHPFLGREVPISNGSGFVVAADGLIVTNAHVVADRRRVRVRLLSGDTYEAVVTAVDPVADIATLRIQTKEPLPTLPLGRSADVRQGEFVVAMGSPFALQNTITSGIVSSAQRPARDLGLPQTNVEYIQTDAAIDFGNSGGPLVNLDGEVIGVNTMKVTAGISFAIPSDRLREFLHRGEKKNSSSGISGSQRRYIGVMMLTLSPSILAELQLREPSFPDVQHGVLIHKVILGSPAHRAGLRPGDVILAIGEQMVQNAEDVYEAVRTQSQLAVQIRRGRETLTLYVTPEVTE
in vitro protease assay; western blotting of HNF-4α band [1]: the band of HNF-4α was reduced significantly after the reaction of active HtrA2 with HNF-4α for overnight (O/N) | in vitro protease assay; western blotting of CREBL1 band [2]: the band of CREBL1 was reduced significantly after the reaction of active HtrA2 with CREBL1 for overnight (O/N) | in vitro protease assay; degradation pattern of biotinylated CREBL1 by western blotting (streptavidin HRP) [3]: remarkable reduction of the band of biotinylated CREBL1 was observed, and further, the band that was supposed to be a degradation product of CREBL1 was detected around 50 kDa | in vitro protease assay; western blotting of ATF6 band [4]: the band of ATF6 was reduced significantly after the reaction of active HtrA2 with ATF6 for four hours (4 h) or overnight (O/N)
